Assay results from the supplement of paper PMC12042874.
± gives the uncertainty stated by the source.

Assay: amyloid nucleation score (Sup35N fusion, yeast selection) (log enrichment); library NNK1; higher = more nucleation; inactive = no reads after selection
Procedure, shortened: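 After 24 hours of induction with 100 μM copper sulfate, psi-negative yeast expressing peptides of 20 random codons fused to Sup35N were grown for 7 days at 30°C on medium lacking adenine and uracil. Input and output plasmid inserts were sequenced with Illumina, and sequences with under 100 input reads were discarded. Scores for nucleation are the DiMSum log enrichment of output over input reads, centred on the mode score of non-aggregating sequences.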

Row | Substance | amyloid nucleation score
1 | LLYSERTIIPVDRYT | -0.686 ± 0.48
2 | TSWFSYRLANCAFHSQGFSR | 0.366 ± 0.38
3 | WGNTRYGTAASVCVTEVKGS | 0.048 ± 0.4
4 | GYNGCYNIFVHRSDKMAALR | 0.515 ± 0.59
5 | ISLISYFFSFLWLYYYFFEF | 1.06 ± 0.28
6 | EDRYGIVC | -0.25 ± 0.74
7 | SLVLRRLYEVSVTCTAGNAW | 0.094 ± 0.98
8 | FNKTSMVSGNQLRVLVLVNI | 1.08 ± 0.59
9 | CLYVAESSTTMNLWDHSVLP | -0.575 ± 0.41
10 | GLVSQPFWCSYKCGGHNHKG | 0.314 ± 1.4
11 | AVLLCRSESCCKYSAIANSG | -1.22 ± 0.69
12 | RCCSFRLYLFTEG | 4.78 ± 0.068
13 | RCGRSVVDGLRCFRLRMAFG | -1.06 ± 1.2
14 | VSCWRTVRTAF | 0.893 ± 0.59
15 | GVTLYRRGIFGMSL | 0.338 ± 0.66
16 | FSLFDGMVLVNS | -0.281 ± 0.39
17 | FVVRCDYVVLTLDSGDRSYV | 3.37 ± 0.071
18 | SLYDLTDTAICFAFFYFD | 7.95 ± 0.082
19 | LCAARNFSL | -0.277 ± 0.5
20 | GVCKTYSIDKAPI | 0.823 ± 0.51
21 | GYCLVYLAIGGFARILGYPV | -0.461 ± 1.1
22 | LKARQHFRNHHGMLVQKRWD | inactive
23 | LAQSGIDIYLRKGMDARKMR | -0.516 ± 0.32
24 | VGLLMKTACSWAGSVTDRCM | 2.62 ± 0.14
25 | FMCIPV | 0.189 ± 0.55

Row | Substance | amyloid nucleation score
26 | ERWIVVPDESTTRTTHRHIN | 0.147 ± 1.6
27 | WVWDGDIGGWNVKPFHRVRG | 0.121 ± 0.58
28 | LNSDCCPNSFDKHFLSFLCM | 0.433 ± 0.81
29 | NNQHDGYSIFILDRQPLRAM | 0.488 ± 0.59
30 | CCHRGCGAFVGWMHQFGWYI | -0.186 ± 0.42
31 | KMRCDGLEQRLRSQSDLLAP | 0.374 ± 0.45
32 | AFPPYRIFADRLYMSSPGPA | 0.961 ± 0.69
33 | RVVSCMTSRMLWSMRDPIYY | 0.217 ± 0.41
34 | KLFSWADHGGEGFEWMQLTT | -0.026 ± 0.3
35 | DNSRIYLCGSLNCFYFSDVL | 7.656 ± 0.074
36 | IVVFSIYYVCSDGGPRVTRR | 1.43 ± 0.3
37 | SLPVLCASRYHLHYRMGFSG | 1 ± 0.69
38 | PCSKAFRAVNISEAKIDFGN | -0.416 ± 0.5
39 | KDIYKRFFWYYSKKVCGYGA | -0.172 ± 0.25
40 | VNNYTF | 0.234 ± 0.28
41 | YSIDLIPYRDYGNKTCHGIM | 2.27 ± 0.081
42 | RLHAVTSLCR | 5.42 ± 0.1
43 | WADTPRQLGCSSSSTISCSL | -0.216 ± 0.4
44 | HVGRIPGEVYSLKFTGLGRY | -0.839 ± 0.95
45 | ISGLNV | -0.372 ± 0.51
46 | YNLYRH | 0.406 ± 0.51
47 | TISGAVRGCGGCSIRWLMSL | -0.663 ± 0.33
48 | HTFSRRTGAGGSAKLT | 0.972 ± 0.6
49 | QLGQAICRSLYNVRSYMQGF | inactive
50 | DHITKHFIGV | inactive

Row | Substance | amyloid nucleation score
51 | LGCSFR | -0.065 ± 1.4
52 | IRFFKCLTCVSDCGN | inactive
53 | SVARFNVWVVLSSRNVTCQS | 1.82 ± 0.12
54 | LVMFEIKLMRFNFTMRSVRR | 2.91 ± 0.13
55 | IGYSGYY | -0.296 ± 0.41
56 | RIVISCRFEYGLGVGSSGVP | 0.156 ± 1.6
57 | VSTQIRRDGYDYAAVGHC | 0.009 ± 0.8
58 | GYFLPGFEMLCYNRRIWYIM | -1.03 ± 0.61
59 | FLCPRSCHGPNTFDFIMWSF | 0.198 ± 0.66
60 | VFSKHRFSIYCSRYAEPTTR | 0.002 ± 0.31
61 | FAYFSVNCL | inactive
62 | VCSSLFSSCPL | 0.735 ± 0.37
63 | TWSACICKRMVLPCDFQNGS | 0.808 ± 0.9
64 | LRSVSGCIKFAYGDSCMSLK | inactive
65 | ILIGRPQYIDRYMSSCVIIL | inactive
66 | RLLRFGENFDCWKYLNVALE | 0.004 ± 0.42
67 | VFLIAWGLFSRMC | 4.54 ± 0.11
68 | WSHADILV | inactive
69 | GCLFICSMRELYKSASSTMR | 0.141 ± 0.48
70 | ATRSMEAIIMRELWYIDPVY | 0.831 ± 0.87
71 | CPRIYGVRLKSSRLPAGVYV | 1 ± 1
72 | MKVDNSVLMPATTHQRNMQG | -0.211 ± 0.67
73 | VHGGAWLTGGSRTGAQFIAV | -0.402 ± 0.59
74 | VFTLPLDWQKRCGYDSLRFP | 0.018 ± 0.44
75 | PSRWRYYGSYGDLILICSGS | -0.907 ± 0.79

Row | Substance | amyloid nucleation score
76 | SKYLCNMLPISDLHMGQTFN | -0.391 ± 0.44
77 | LFFHL | 0.83 ± 0.79
78 | FVLHCCRLRGHTSSSHWLGA | 0.245 ± 0.43
79 | MFGAHLA | inactive
80 | YTVLEGGALCFLKELRHRIL | -0.146 ± 0.32
81 | VNIRVRD | 0.023 ± 0.33
82 | VIVWVWSCVM | 6.247 ± 0.055
83 | EFMYYL | -0.979 ± 1.9
84 | MFLYLLVVTP | inactive
85 | NTHTAWNRIGRTWRQNWTWG | 0.061 ± 0.47
86 | TKIRCDRWTLYIKGITYRAL | 0.86 ± 1.1
87 | VFNFT | -0.816 ± 1.9
88 | HCRNS | 2 ± 0.3
89 | VGCSRIDDPRSGAEALRSYC | 1.08 ± 0.78
90 | CGFEVFVRIV | 0.431 ± 0.7
91 | AFMDKLMSPGEVIEVAL | 1.29 ± 0.84
92 | IGDNVNGSLLEIW | -0.528 ± 0.32
93 | GHYVDLKSLYPPMTCAMACM | -0.125 ± 0.38
94 | IGCKCDIFVCNCISVCYVGA | 4.3 ± 0.16
95 | RTGPLSVASGAVPYGYQPWL | -0.203 ± 0.62
96 | LVPVITWK | 4.3 ± 0.13
97 | YNISDSTSPMVASRMGRLGQ | 0.364 ± 0.45
98 | CCDIEITLSHGVIGICSRKT | 0.844 ± 0.26
99 | VREGPRSRSGG | 0.149 ± 0.41
100 | LHGLNF | 0.843 ± 0.74

Row | Substance | amyloid nucleation score
101 | FELICNRNGNSPRYAFKKIP | 0.976 ± 0.35
102 | PREDRGLSWISGYYYYLVAG | -0.341 ± 0.47
103 | GLIQYPGFIASMYPSDNTSC | 0.135 ± 0.41
104 | FIIEQANGQGYNYLHI | -0.481 ± 0.48
105 | PFVYLVYCGNGNVFAAKYLS | 6.217 ± 0.059
106 | HILYKRFFFGSCSSGCHL | -0.428 ± 0.47
107 | RDFYCFWLG | 4.05 ± 0.08
108 | SPLFLVWLTCYKQDPFILVW | inactive
109 | LVSQTYNMVARLRSSLARVN | 0.243 ± 0.78
110 | LHIAMTVYC | 2.42 ± 0.13
111 | NNLMFNYSGHMVSVKAHSSG | 0.776 ± 0.43
112 | YWCAISSVSLKFLVMSYLSG | -0.362 ± 1.1
113 | MSRIVF | -0.003 ± 0.71
114 | LFGSEVTWYLTSGCDKPFLH | 0.087 ± 0.48
115 | LSCWTCNRFYRGGLLVCMYP | -0.713 ± 0.46
116 | HLYLRITTVG | 1.49 ± 0.76
117 | CLFFNYRVIEFNTPGVNMFW | 0.739 ± 0.33
118 | VRKNSERGVK | -0.591 ± 0.4
119 | CPASVMAKRYCQLKMGWWGP | 0.202 ± 0.37
120 | LGSDDLLKVSFFFVSLGS | -0.087 ± 1.2
121 | KIPYVFFGKRTGVSLFRMFD | 0.202 ± 0.56
122 | SCPTMYSYVFWVRFQSGTAS | 1.72 ± 0.13
123 | CFQPWKNLKAY | -0.67 ± 0.68
124 | QYRHRGRQHLMGGNAQCPYV | 0.477 ± 0.66
125 | ERTICSVITMNHGSSAYQGS | -0.081 ± 0.47

Row | Substance | amyloid nucleation score
126 | SSLLFEPATASFILQD | -0.894 ± 0.68
127 | TVLVYRGFTEGCSHFSWPSN | 0.302 ± 0.8
128 | NISSIASVWVCVKVRYVSYS | 0.432 ± 0.59
129 | SVPMMSML | 0.019 ± 0.25
130 | ENRFARCYRVV | 2.1 ± 0.1
131 | NSRWSIFFASMCDIRLWCVV | 0.755 ± 0.84
132 | SHIFRWNTCRMEIRWYNQYY | 1.14 ± 0.71
133 | DIRNLLTWSISDVVTVRKIG | -0.643 ± 0.33
134 | LCFSGD | -0.352 ± 0.99
135 | VNVFYLMFQNIIIQVFLCVF | inactive
136 | LDAKVFRVALAYYLPPGP | 0.789 ± 0.53
137 | YIIWFPFSKLVLMRYHRSWG | -0.005 ± 0.22
138 | KYCVN | -0.403 ± 0.38
139 | SAAGT | 0.49 ± 0.66
140 | NLCFLITNYINRLNFYNFVV | 0.807 ± 0.93
141 | CSSDFYYLAELNLPFN | 0.917 ± 0.43
142 | LTILCWWLYEIRR | 0.556 ± 0.55
143 | LSVSFDVDVMVMIQVNCAIH | 0.105 ± 0.39
144 | WRMVAIWKNLD | -0.013 ± 0.56
145 | IYACRGQRVMRTRIKCVVIW | 0.525 ± 0.72
146 | LFNYPS | -0.948 ± 1.1
147 | RSRLLSFGVNGGWYIKMLIS | -0.028 ± 0.61
148 | RMIKNYSIS | 0.89 ± 0.55
149 | WYVLARGMYENTLVGSCSMV | 6.13 ± 0.088
150 | TTFSEVERLWGWSVFCNLST | 0.723 ± 0.66

Row | Substance | amyloid nucleation score
151 | LSAWPTIEEMVPAHMKTTHA | 0.526 ± 0.54
152 | SRVQYLILDIMVTRYGASTS | -0.262 ± 0.53
153 | FTLMGNSCHRGLV | -0.66 ± 0.85
154 | SNLWFL | -0.213 ± 0.28
155 | AGKCIVQYKGLKNVR | 0.91 ± 0.75
156 | ACDTS | 0.693 ± 0.45
157 | PTFFHNCVDTFRSS | -0.026 ± 0.47
158 | VKLAVREVTSEMPREKLTVA | 0.236 ± 0.26
159 | AIFFGGIGKVCVKLVLCVRL | 0.248 ± 0.27
160 | PGKRHGFMLRDFAMPKLSYH | -0.918 ± 0.59
161 | SYKSWQ | 0.978 ± 0.43
162 | SNRFFVPRA | -0.334 ± 0.5
163 | DLTVWSTIFDSMSTCEHRGG | 0.257 ± 0.42
164 | IVCFM | -0.377 ± 0.6
165 | LSFNSTSPEIIRTVVMAWC | -1.54 ± 1.7
166 | VLIGSLLCN | 0.878 ± 0.41
167 | LFFLLLNHRAVVVLLWCHFT | -1.19 ± 0.91
168 | FTCKWRVGFWTPVSDPV | -1.27 ± 0.7
169 | NFTSRYEANFTVFSFRAWRL | 0.297 ± 0.36
170 | RIIGHLKFIMIRNNVSLCDM | -0.146 ± 0.5
171 | NSNCELGKVHFAV | 0.501 ± 0.35
172 | YNVLCYFLNRFWMGYWYLLS | 1.5 ± 0.5
173 | RVNTETMITGESGMSIDELM | 1.03 ± 0.76
174 | RVILFFRFIAILEDCATVSF | -0.544 ± 0.25
